# Experimental data reported in the supplement of paper PMC7877785.
# ± gives the uncertainty stated by the source.
# Assay: self-splicing fitness, log relative to wild type (ln ratio); higher = more splicing; Tetrahymena group I intron in knt gene, E. coli kanamycin selection, DiMSum; sequences stand for … in CUCUCU…GGAGGGAAAAGUUAUCAGGCAUGCACCUGGUAGCUAGUCUUUAAACCAAUAGAUUGCAUCGGUUUAAAAGGCAAGACCGUCAAAUUGCGGGAAAGGGGUCAACAGCCGUUCAGUACCAAGUCUCAGGGGAAACUUUGAGAUGGCCUUGCAAAGGGUAUGGUAAUAAGCUGACGGACAUGGUCCUAACCACGCAGCCAAGUCCUAAGUCAACAGAUCUUCUGUUGAUAUGGAUGCAGUUCACAGACUAAAUGUCGGUCGGGGAAGAUGUAUUCUUCUCAUAAGAUAUAGUCGGACCUCUCCUUAAUGGGAGCUAGCGGAUGAAGUGAUGCAACACUGGAGCCGCUGGGAACUAAUUUGUAUGCGAAAGUAUAUUGAUUAGUUUUGGAGUACUCGUGGUCG
# Method in brief: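 Fitness was computed with DiMSum as the error-weighted combination of replicate fold changes, kanamycin versus none, each normalised to wild type. The library randomised all eight intron nucleotides of the P1ex region, with the intron placed in the knt kanamycin-resistance gene on pET-22b(+) in E. coli BL21(DE3). Six replicate transformations were grown overnight at 37°C or 30°C on LB agar with or without 25 μg/mL kanamycin, plus 100 μg/mL carbenicillin, 50 μM IPTG and 0.2% rhamnose. Pooled colonies were amplicon-sequenced on an Illumina HiSeq 2500.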
Sequence,self-splicing fitness (ln) (30 °C),self-splicing fitness (ln) (37 °C)
AAAAAGCAAUAUUACGAAAU,-1.91 ± 0.091,-1.01 ± 0.12
AAAAAGCAAUAUUACGAAUU,-1.3 ± 0.072,-1.13 ± 0.089
AAAAAGCAAUAUUACGAUGG,-2.81 ± 0.12,-0.923 ± 0.11
AAAAAGCAAUAUUACGCAAC,-2.16 ± 0.15,-1.99 ± 0.24
AAAAAGCAAUAUUACGCCAU,-2.87 ± 0.22,-1.71 ± 0.24
AAAAAGCAAUAUUACGCGCU,-0.379 ± 0.076,-0.358 ± 0.091
AAAAAGCAAUAUUACGCUGU,-2.69 ± 0.13,-1.69 ± 0.11
AAAAAGCAAUAUUACGGACU,-0.0499 ± 0.067,-0.0238 ± 0.083
AAAAAGCAAUAUUACGGAUG,-2.17 ± 0.094,-1.23 ± 0.095
AAAAAGCAAUAUUACGGCAG,-1.32 ± 0.074,-0.434 ± 0.095
AAAAAGCAAUAUUACGGCAU,0.0355 ± 0.061,0.55 ± 0.081
AAAAAGCAAUAUUACGGGUA,-1.61 ± 0.11,-0.435 ± 0.11
AAAAAGCAAUAUUACGGUCG,-0.302 ± 0.062,0.273 ± 0.083
AAAAAGCAAUAUUACGUAUU,-1.92 ± 0.077,-1.39 ± 0.11
AAAAAGCAAUAUUACGUUUA,-1.4 ± 0.1,-0.799 ± 0.091
AAACAGCAAUAUUACGAUGA,-1.34 ± 0.067,-0.0116 ± 0.067
AAACAGCAAUAUUACGCAGA,-2.53 ± 0.15,-1.42 ± 0.11
AAACAGCAAUAUUACGCGUC,-2.3 ± 0.095,-1.78 ± 0.12
AAACAGCAAUAUUACGGCCG,-1.69 ± 0.13,-0.732 ± 0.16
AAACAGCAAUAUUACGGUAG,-2.8 ± 0.12,-2.02 ± 0.12
AAACAGCAAUAUUACGUACA,-1.23 ± 0.073,-0.0501 ± 0.082
AAACAGCAAUAUUACGUAUC,-3.98 ± 0.17,-1.97 ± 0.12
AAACAGCAAUAUUACGUCAA,-2.45 ± 0.11,-1.44 ± 0.087
AAACAGCAAUAUUACGUCGA,-0.86 ± 0.065,-0.774 ± 0.073
AAACAGCAAUAUUACGUGAC,-3.5 ± 0.14,-2.29 ± 0.13
AAACAGCAAUAUUACGUGCC,-2 ± 0.1,-1.31 ± 0.13

Sequence,self-splicing fitness (ln) (30 °C),self-splicing fitness (ln) (37 °C)
AAACAGCAAUAUUACGUGGG,-3.64 ± 0.13,-2.71 ± 0.11
AAACAGCAAUAUUACGUGUC,-4.08 ± 0.15,-2.78 ± 0.13
AAACAGCAAUAUUACGUUCC,-2.55 ± 0.16,-1.13 ± 0.19
AAACAGCAAUAUUACGUUGC,-3.24 ± 0.11,-3.26 ± 0.18
AAAGAGCAAUAUUACGAGAU,-3.95 ± 0.17,-3.28 ± 0.22
AAAGAGCAAUAUUACGAGCU,–,-2.09 ± 0.28
AAAGAGCAAUAUUACGAGUG,-3.95 ± 0.19,-2.38 ± 0.16
AAAGAGCAAUAUUACGAUAA,-3.45 ± 0.18,-2.2 ± 0.22
AAAGAGCAAUAUUACGAUCC,–,-1.6 ± 0.32
AAAGAGCAAUAUUACGCACU,-1.46 ± 0.12,-0.12 ± 0.15
AAAGAGCAAUAUUACGCAGC,–,-2.77 ± 0.41
AAAGAGCAAUAUUACGCCUA,-2.22 ± 0.21,-1.81 ± 0.25
AAAGAGCAAUAUUACGCGCA,-2.39 ± 0.17,-1.5 ± 0.12
AAAGAGCAAUAUUACGCGUC,-2.18 ± 0.2,-2.6 ± 0.21
AAAGAGCAAUAUUACGCGUU,-2.13 ± 0.14,-1.32 ± 0.14
AAAGAGCAAUAUUACGCUAC,–,-2.81 ± 0.32
AAAGAGCAAUAUUACGCUAG,-2.87 ± 0.17,-2.42 ± 0.27
AAAGAGCAAUAUUACGCUUG,-1.67 ± 0.13,-1.19 ± 0.18
AAAGAGCAAUAUUACGGCCC,-3.78 ± 0.37,-1.59 ± 0.34
AAAGAGCAAUAUUACGGCUG,-2.36 ± 0.1,-1.12 ± 0.12
AAAGAGCAAUAUUACGGGAG,-3.34 ± 0.21,-2.8 ± 0.27
AAAGAGCAAUAUUACGUAAA,-3.11 ± 0.15,-1.42 ± 0.13
AAAGAGCAAUAUUACGUCUA,-1.12 ± 0.093,-0.882 ± 0.093
AAAGAGCAAUAUUACGUGCC,-3.09 ± 0.21,-2.35 ± 0.22
AAAGAGCAAUAUUACGUUCA,-1.03 ± 0.094,-0.639 ± 0.097
AAAGAGCAAUAUUACGUUCG,-1.54 ± 0.11,-0.974 ± 0.15

Sequence,self-splicing fitness (ln) (30 °C),self-splicing fitness (ln) (37 °C)
AAAGAGCAAUAUUACGUUUA,-1.71 ± 0.17,-1.12 ± 0.21
AAAUAGCAAUAUUACGAACG,-1.42 ± 0.14,-0.384 ± 0.16
AAAUAGCAAUAUUACGAAGU,-2.55 ± 0.18,-2.16 ± 0.2
AAAUAGCAAUAUUACGACAG,-2.02 ± 0.13,-1.34 ± 0.16
AAAUAGCAAUAUUACGAUAG,-3.17 ± 0.27,-2.49 ± 0.23
AAAUAGCAAUAUUACGAUGG,-2.87 ± 0.17,-1.97 ± 0.2
AAAUAGCAAUAUUACGAUUA,0.0855 ± 0.11,0.0228 ± 0.096
AAAUAGCAAUAUUACGAUUU,-0.479 ± 0.061,-0.0855 ± 0.081
AAAUAGCAAUAUUACGCAGC,-3.27 ± 0.33,-0.974 ± 0.25
AAAUAGCAAUAUUACGCUGA,-2.31 ± 0.16,-1.29 ± 0.18
AAAUAGCAAUAUUACGCUGC,-2.73 ± 0.2,-1.86 ± 0.41
AAAUAGCAAUAUUACGGUCA,-0.724 ± 0.069,0.0582 ± 0.071
AAAUAGCAAUAUUACGGUCG,-0.942 ± 0.065,-0.272 ± 0.095
AAAUAGCAAUAUUACGGUGU,-2.83 ± 0.13,-2.05 ± 0.15
AAAUAGCAAUAUUACGUAAG,-1.37 ± 0.078,-0.721 ± 0.096
AAAUAGCAAUAUUACGUAAU,-3.04 ± 0.12,-1.75 ± 0.12
AAAUAGCAAUAUUACGUGCU,-0.869 ± 0.11,-1.22 ± 0.15
AAAUAGCAAUAUUACGUUGU,-4.44 ± 0.29,-1.02 ± 0.12
AACAAGCAAUAUUACGAAUU,-1.9 ± 0.091,-0.666 ± 0.12
AACAAGCAAUAUUACGACAG,-2.25 ± 0.078,-1.76 ± 0.09
AACAAGCAAUAUUACGAGAA,-2.78 ± 0.32,-2.03 ± 0.21
AACAAGCAAUAUUACGAGAC,-1.88 ± 0.11,-2.67 ± 0.19
AACAAGCAAUAUUACGAGAU,-3.08 ± 0.14,-1.62 ± 0.12
AACAAGCAAUAUUACGAGGA,-1.76 ± 0.14,-2.42 ± 0.16
AACAAGCAAUAUUACGCAAC,-3.89 ± 0.22,-1.63 ± 0.12
